B1: WT-Sx4-GST (C-terminally GST-tagged Syntaxin 4 cytosolic domain) [not stated] / His-SNAP23 (N-terminally His-tagged SNAP23) [not stated] (parent)
chain 1: MRDRTHELRQGDNISDDEDEVRVALVVHSGAARLGSPDDEFFQKVQTIRQTMAKLESKVRELEKQQVTILATPLPEESMKQGLQNLREEIKQLGREVRAQLKAIEPQKEEADENYNSVNTRMKKTQHGVLSQQFVELINKCNSMQSEYREKNVERIRRQLKITNAGMVSDEELEQMLDSGQSEVFVSNILKDTQVTRQALNEISARHSEIQQLERSIRELHEIFTFLATEVEMQGEMINRIEKNILSSADYVERGQEHVKIALENQKKARKKKV
chain 2: MDNLSPEEVQLRAHQVTDESLESTRRILGLAIESQDAGIKTITMLDEQGEQLNRIEEGMDQINKDMREAEKTLTELNKCCGLCICPCNRTKNFESGKNYKATWGDGGDNSPSNVVSKQPSRITNGQPQQTTGAASGGYIKRITNDAREDEMEENLTQVGSILGNLKNMALDMGNEIDAQNQQIQKITEKADTNKNRIDIANTRAKKLIDS

Variants of: B1
Assay: GST pull-down (glutathione sepharose), immunoblot, ImageJ quantification
Details: with His-SNAP23 (N-terminally His-tagged SNAP23); 30 min; 1–5 μg Sx4-GST variant on beads, excess His-SNAP23, 4 °C; read off a plot
In the case of chain 1 MRDRTHELRQGDNISDDEDEVRVALVVHSGAARLGSPDDEFFQKVQTIRQTMAKLESKVRELEKQQVTILATPLPEESMKQGLQNLREEIKQLGREVRAQLKAIEPQKEEADENYNSVNTRMKKTQHGVLSQQFVELINKCNSMQSEYREKNVERIRRQLKITNAGMVSDEEAAQMLDSGQSEVFVSNILKDTQVTRQALNEISARHSEIQQLERSIRELHEIFTFLATEVEMQGEMINRIEKNILSSADYVERGQEHVKIALENQKKARKKKV [chain 1 L173A E174A], the response (relative amount bound) is reported as 0.77.

Same assay, conditions: with His-SNAP23 (N-terminally His-tagged SNAP23); 60 min; 1–5 μg Sx4-GST variant on beads, excess His-SNAP23, 4 °C; read off a plot
Work on chain 1 MRDRTHELRQGDNISDDEDEVRVALVVHSGAARLGSPDDEFFQKVQTIRQTMAKLESKVRELEKQQVTILATPLPEESMKQGLQNLREEIKQLGREVRAQLKAIEPQKEEADENYNSVNTRMKKTQHGVLSQQFVELINKCNSMQSEYREKNVERIRRQLKITNAGMVSDEEAAQMLDSGQSEVFVSNILKDTQVTRQALNEISARHSEIQQLERSIRELHEIFTFLATEVEMQGEMINRIEKNILSSADYVERGQEHVKIALENQKKARKKKV [chain 1 L173A E174A] yielded a response (relative amount bound) of 1.7.
